Experimental data reported in patent US11124558B2, “Use of tetranectin and peptide agonists to treat inflammatory diseases” (The Feinstein Institutes for Medical Research, priority 2017, dated 2021).

Test system: circulating D-dimer, endotoxemic Balb/C mice
Experiment: Plasma D-dimer level in endotoxemic mice (ELISA)
Assay type: in vivo
Conditions: 24 h post endotoxemia
Method: Venous blood was obtained from normal healthy and endotoxemic, Balb/C mice at 24 h post endotoxemia in the absence or presence of recombinant TN. The plasma level of fibrin degradation product (FDP's, e.g., D-dimer) was measured using commercial ELISA kit (Cat. No. EKU03631, Biomatik) as per the manufacturers' instructions. *, P<0.05 as compared to the positive control (+LPS alone).
In light of HMGB1's key role in the platelet activation/aggregation and its possible interaction with TN protein, the impact of TN or TN-specific peptide agonists on the pro-fibrinolytic activities is evaluated by measuring the plasma level of fibrin degradation products (FDP's, e.g., D-dimer) using commercial ELISA kits (Cat. No. EKU03631, Biomatik) as per the manufacturers' instructions. A parallel elevation of D-dimer levels is indicative of a possible acceleration of the fibrinolysis cascade by the TN treatment. However, a decrease in the D-dimer concentration is indicative of a reduction of either the plasmin-mediated fibrinolysis or the thrombin-mediated coagulation. […] Given the complex roles of fibrinolysis in sepsis, therapeutic agents that could control coagulation/fibrinolysis balance, while maintaining the host defense at the infectious foci, can be useful for understanding the complex pathogenesis of lethal systemic inflammatory diseases.

B1: tetranectin (protein, listed as Homo sapiens)
chain: EPPTQKPKKIVNAKKDVVNTKMFEELKSRLDTLAQEVALLKEQQALQTVCLKGTKVHMKCFLAFTQTKTFHEASEDCISRGGTLGTPQTGSENDALYEYLRQSVGNEAEIWLGLNDMAAEGTWVDMTGARIAYKNWETEITAQPDGGKTENCAVLSGAANGKWFDKRCRDQLPYICQFGIV
effect on endotoxin-induced elevation of circulating D-dimer levels (P<0.05 vs +LPS alone): significantly attenuated
reduction of plasma D-dimer levels (at doses that conferred significant protection): 40-50%
